In this experiment the test system is uterine epithelial cells (UEC). The experiment is described as follows: Sperm binding to UEC monolayer pre-incubated with lectin. Format: cell-based, porcine. The note with it: UEC pre-incubated with lectin 10 μg/ml 15 min, then sperm 10 min. As to the method:
Confluent UEC were grown on glass cover slips form primary cell cultures. In total, uteri from 78 primiparous German Landrace or German Edelschwein gilts aged 8-10 months and with live weights of over 110 kg, were retrieved to harvest primary cells. All animals were maintained and handled according to the German regulations for animal welfare. Gilts were monitored for natural oestrus and slaughtered according to standing heat, i.e. at the time when artificial insemination would have been performed. Gilts were stunned electrically and subsequently slaughtered by exsanguination. Three minutes after bleeding the abdomen was opened and the uterus removed in toto. Further, the ovaries, oviducts and the mesometrium were removed by cutting with sterile scissors without damaging the myometrium. The uterine horns were ligated with stitching thread between and a section of 20-25 cm was cut off. The sections were placed in sterile phosphate buffered saline (PBS) without Ca^++ and Mg^++ (Karl Roth, Karlsruhe, Germany) containing 2% Penicillin/Streptomycin (P/S; PAA, Pasching, Austria) in a glass bottle and kept at 5° C. for 45 min. After 45 min at 5° C. the uterine sections were removed from the bottle and placed on cellulose tissue under a sterile laminar flow system. The stitching material was removed. […]

This is an account of results in US20180200345A1, “PROCESS AND COMPOSITION FOR LOW DOSE INSEMINATION” (IMV TECHNOLOGIES, priority 2015, published 2018).

B1: PNA: lectin with affinity for β-D-(1-3)-D-galactosamine (protein, UniProt P02872 24-273, looked up)
Galactose-binding lectin: AETVSFNFNSFSEGNPAINFQGDVTVLSNGNIQLTNLNKVNSVGRVLYAMPVRIWSSATGNVASFLTSFSFEMKDIKDYDPADGIIFFIAPEDTQIPAGSIGGGTLGVSDTKGAGHFVGVEFDTYSNSEYNDPPTDHVGIDVNSVDSVKTVPWNSVSGAVVKVTVIYDSSTKTLSVAVTNDNGDITTIAQVVDLKAKLPERVKFGFSASGSLGGRQIHLIRSWSFTSTLITTTRRSIDNNEKKIMNMASA
As for B1, the “effect on sperm binding to UEC (in words)” value was “some areas showed massive sperm binding as seen with untreated UEC, whereas others were not populated at all”.
